# Results taken from patent US20240301385, “DNA MODIFYING ENZYMES AND ACTIVE FRAGMENTS AND VARIANTS THEREOF AND METHODS OF USE” (LIFEEDIT THERAPEUTICS, INC., published 2024).
# T1: APG30129-L32-nAPG07433.1 (synthetic)
# T1 chain: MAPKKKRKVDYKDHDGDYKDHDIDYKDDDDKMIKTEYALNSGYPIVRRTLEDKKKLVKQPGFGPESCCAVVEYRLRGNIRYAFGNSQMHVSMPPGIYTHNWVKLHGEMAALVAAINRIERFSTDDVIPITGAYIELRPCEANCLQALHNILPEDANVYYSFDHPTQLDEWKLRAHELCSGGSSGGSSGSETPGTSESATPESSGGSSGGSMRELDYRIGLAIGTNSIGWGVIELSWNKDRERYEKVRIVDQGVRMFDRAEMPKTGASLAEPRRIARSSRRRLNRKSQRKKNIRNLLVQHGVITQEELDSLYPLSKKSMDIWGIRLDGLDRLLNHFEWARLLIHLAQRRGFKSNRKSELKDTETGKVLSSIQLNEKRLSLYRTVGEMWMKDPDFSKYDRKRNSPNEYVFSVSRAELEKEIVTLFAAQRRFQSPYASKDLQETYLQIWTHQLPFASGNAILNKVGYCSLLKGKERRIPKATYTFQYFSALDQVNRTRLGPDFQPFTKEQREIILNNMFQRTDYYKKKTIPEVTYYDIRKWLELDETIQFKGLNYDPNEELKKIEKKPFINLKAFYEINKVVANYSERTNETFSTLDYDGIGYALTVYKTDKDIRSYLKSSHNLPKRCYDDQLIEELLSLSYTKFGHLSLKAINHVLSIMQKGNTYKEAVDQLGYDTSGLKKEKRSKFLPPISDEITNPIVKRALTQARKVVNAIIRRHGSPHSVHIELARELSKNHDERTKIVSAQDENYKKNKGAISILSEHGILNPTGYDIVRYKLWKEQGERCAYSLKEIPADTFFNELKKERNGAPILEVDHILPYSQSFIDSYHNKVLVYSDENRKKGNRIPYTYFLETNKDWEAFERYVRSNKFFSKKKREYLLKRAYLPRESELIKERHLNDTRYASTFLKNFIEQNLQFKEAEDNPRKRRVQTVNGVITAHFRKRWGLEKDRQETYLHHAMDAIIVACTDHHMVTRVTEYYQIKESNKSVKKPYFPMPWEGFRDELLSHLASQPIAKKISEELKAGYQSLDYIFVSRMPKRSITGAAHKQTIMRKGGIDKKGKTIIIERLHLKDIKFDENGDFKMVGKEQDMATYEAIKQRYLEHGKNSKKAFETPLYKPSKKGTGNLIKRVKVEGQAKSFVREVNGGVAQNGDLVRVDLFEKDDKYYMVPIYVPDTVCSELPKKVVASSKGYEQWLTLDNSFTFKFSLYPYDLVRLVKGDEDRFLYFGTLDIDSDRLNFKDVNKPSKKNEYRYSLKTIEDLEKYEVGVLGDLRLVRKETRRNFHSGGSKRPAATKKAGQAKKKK
# What was measured:
# [1] = biological target: APG05840.1-L16-nAPG07433.1-USP2 (synthetic); assay: cell_activity; HEK293FT; PAM SEQ 152; details: tags: SV40 NLS, 3xFLAG N-term; USP2, nucleoplasmin NLS C-term
# Method in brief: (§1)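 Editing read out by next-generation sequencing (MiSeq 2×250) of PCR amplicons spanning the target site, analysed for INDELs or % cytosine conversion per position (position 1 nearest PAM).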
# APG30129-L32-nAPG07433.1 = biological target: T1, APG30129-L32-nAPG07433.1; assay: cell_activity; HEK293FT; PAM SEQ 152; details: tags: SV40 NLS, 3xFLAG N-term; nucleoplasmin NLS C-term
# Method in brief: as §1
Binder,activity [1] [% mutated reads],activity (APG30129-L32-nAPG07433.1) [% mutated reads]
SGN001101 sgRNA ; SGN001101 target (ssRNA ; dsDNA) RNA: AUAUUUUCUUUAAUGGUGCCAGGCAGUCAUAGUUCCAUUAAAGCCAAAAGUGGCUUUGAUGUUUCUAUGAUAAGGGUUUCGACCCGUGGCGUCGGGGAUCGCCUGCCCAUUGAAAUGGGCUUCUCCCCAU DNA 1: ATATTTTCTTTAATGGTGCCAGGCA DNA 2: TGCCTGGCACCATTAAAGAAAATAT,12.7,
SGN000194 sgRNA ; SGN000194 target (ssRNA ; dsDNA) RNA: GCCGCACAGCAUUCAGGUCGGUCAUAGUUCCAUUAAAGCCAAAAGUGGCUUUGAUGUUUCUAUGAUAAGGGUUUCGACCCGUGGCGUCGGGGAUCGCCUGCCCAUUGAAAUGGGCUUCUCCCCAUUUAUU DNA 1: GCCGCACAGCATTCAGGTCG DNA 2: CGACCTGAATGCTGTGCGGC,,5.92
SGN000930 sgRNA ; SGN000930 target (ssRNA ; dsDNA) RNA: GAACAACUCAAAUGGAAAUGAAUAUGUCAUAGUUCCAUGAAAGCCAAAAGUGGCUUUGAUGUUUCUAUGAUAAGGGUUUCGGCCCGUGGCGUCGGGGAUCGCCUGCCCAUUCCGAUGGGCUUCUCCCCAUUUAUU DNA 1: GAACAACTCAAATGGAAATGAATAT DNA 2: ATATTCATTTCCATTTGAGTTGTTC,13.1,3.47
